Experimental data from paper PMC6326779 (2018).

Target: T1, CRBN (Homo sapiens, UniProt Q96SW2)
T1 chain: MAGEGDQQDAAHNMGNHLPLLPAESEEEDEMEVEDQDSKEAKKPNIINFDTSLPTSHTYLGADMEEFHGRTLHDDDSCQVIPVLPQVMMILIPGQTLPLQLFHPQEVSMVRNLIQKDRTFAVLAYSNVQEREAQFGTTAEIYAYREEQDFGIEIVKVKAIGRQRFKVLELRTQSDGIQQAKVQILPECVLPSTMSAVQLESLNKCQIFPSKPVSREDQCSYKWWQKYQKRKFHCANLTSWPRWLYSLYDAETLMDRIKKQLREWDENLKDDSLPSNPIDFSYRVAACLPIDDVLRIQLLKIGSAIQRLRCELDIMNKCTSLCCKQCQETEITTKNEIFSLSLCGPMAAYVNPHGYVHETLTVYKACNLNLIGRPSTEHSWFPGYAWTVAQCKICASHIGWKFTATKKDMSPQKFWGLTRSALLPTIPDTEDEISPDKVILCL
Experiment: TR-FRET

B1: IKZF1 ZF2-ZF3 143-243(Δ197-238) (protein)
chain: RPFQCNQCGASFTQKGNLLRHIKLHSGEKPFKCHLCNYACRRRDALTGHLRTHSVGKPHKCGYCGRSYKQRSSLEEHKERCHNYLESMGLPGTLYPVIKEE
modifications: pomalidomide
Ki: 165 nM
